The source of these data is publication PMC8130932 (PLoS Pathogens, 2021).

Changes are numbered by the printed parent chain.

The target of assay [1] is T1, SARS-CoV-2 spike S2 subunit, recombinant (SARS-CoV-2, reference sequence, UniProt P0DTC2).
T1 construct: source: bought: Sino Biologicals, baculovirus-insect cells
As to the kind of experiment: ELISA. Background: An ELISA detects its analyte on a solid surface through an enzyme-linked reagent.

Assay [2] deals with T2, SARS-CoV-2 NTD on MDCK-SIAT1 cells (SARS-CoV-2 (so in the source)).
T2 construct: also called MDCK-NTD
As to the kind of experiment: flow cytometry on cells. The note with it: one partner purified. (A flow cytometer gives signals particle by particle.)

Assay [3] deals with T3, SARS-CoV-2 RBD (amino acids 340-538) on MDCK-SIAT1 cells (SARS-CoV-2 (so in the source)).
T3 construct: also called MDCK-RBD; source: MDCK-SIAT1, stably transduced (lentiviral vector), on the cell surface
Briefly: flow cytometry on cells. The note with it: one partner purified.

The target of assay [4] is T4, SARS-CoV-2 spike receptor-binding domain, recombinant (SARS-CoV-2, reference sequence, UniProt P0DTC2).
T4 construct: also called RBD; source: bought: Sino Biologicals, baculovirus-insect cells
As to the kind of experiment: ELISA.

B1: FG 7A (antibody, V domains shown)
VH: EVQLVESGGGVVQPGRSLRLSCAASGFTFSSYAMHWVRQAPGKGLEWVAVISYDGSNKYYADSVKGRFTISRDNSKNTLYLQMNSLRAEDTAVYYCARSHSGSYRASLDYWGQGTTVTVSS
VL: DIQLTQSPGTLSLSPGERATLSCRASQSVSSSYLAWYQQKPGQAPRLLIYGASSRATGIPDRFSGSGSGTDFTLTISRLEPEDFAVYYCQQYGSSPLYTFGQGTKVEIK
notes: source: HEK293T, transfected; culture supernatant or purified
With B1, the OD450 in assay [1] was 1.05 OD450.

B2: FD 1D (antibody, V domains shown)
VH: B1 VH with S99A, H100G, R105L, A106N, S107W, L108F, Y110P, T116L
VL: EIVLTQSPATLSLSPGERATLSCRASQSVSSYLAWYQQKPGQAPRLLIYDASNRATGIPARFSGSGSGTDFTLTISSLEPEDFAVYYCQQRSNWPITFGQGTRLEIK
notes: as for B1
Take B2: the OD450 in assay [1] worked out at 1.06 OD450. Besides, the binding result in assay [2] and in assay [3] was “no binding” throughout.

B3: FD 11D (antibody, V domains shown)
VH: EVQLVESGGGVVQPGRSLRLSCAASGFTFSSYGMHWVRQAPGKGLEWVAVISYDGSNKYYADSVKGRFTISRDNSKNTLYLQMNSLRAEDTAVYYCAKEGAGSGWYRHHKPGYYFDYWGQGTLVTVSS
VL: not shown
notes: as for B1
As to B3, in assay [3], the binding result is reported as “no binding”.

B4: FD 7D (antibody, V domains shown)
VH: EVQLVESGAEVKKPGESLRISCKGSGYSFTSYWISWVRQMPGKGLEWMGRIDPSDSYTNYSPSFQGHVTISADKSISTAYLQWSSLKASDTAMYYCARHSDCSSTSCYFVDAFDIWGQGTMVTVSS
VL: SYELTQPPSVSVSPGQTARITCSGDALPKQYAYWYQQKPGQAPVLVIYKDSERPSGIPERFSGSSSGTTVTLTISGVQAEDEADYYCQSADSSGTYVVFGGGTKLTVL
notes: as for B1
Turning to B4, the binding result in assay [2] and in assay [3] was “no binding” in each case.

B5: FM 1A (antibody, V domains shown)
VH: EVQLLESGGGVVQPGRSLRLSCAASGFTFSSYGMHWVRQAPGKGLEWVAVIWYDGSNKYYADSVKGRFTISRDNSKNTLYLQMNSLRAEDTAVYYCAREGAVGATRGFDYWGQGTLVTVSS
VL: SYELTQPPSVSVAPGQTARITCGGNNIGSKSVHWYQQKPGQAPVLVVYDDSDRPSGIPERFSGSNSGNTATLTISRVEAGDEADYYCQVWDSSSDQGVFGGGTKLTVL
notes: as for B1
Take B5: in assay [1], the OD450 turned out to be 0.88 OD450.

B6: FN 8C (antibody, V domains shown)
VH: QVQLVESGGGVVQPGRSLRLSCAASGFTFSSYGMHWVRQAPGKGLEWVAVISYDGSNKYYADTVKGRFTISRDNSKNTLYLQMNSLRAEDTAVYYCARERTYYDILTGYRHYYGMDVWGQGTTVTVSS
VL: B5 VL with Q96H, G97W
notes: as for B1
Turning to B6, the binding result in assay [2] and in assay [3] was “no binding” throughout.

B7: FG 12C (antibody, V domains shown)
VH: EVQLVESGGGLVQPGRSLRLSCAASGFTFDDYAMHWVRQAPGKGLEWVSGISWNSGSIGYADSVKGRFTISRDNAKNSLYLQMNSLRAEDTALYYCAKDMRVHDYGDYYFDYWGQGTLVTVSS
VL: B5 VL with Q16K, V47I, D49Y, Q96H, G97P
notes: as for B1
On to B7, for which the binding result in assay [2] and in assay [3] was “no binding” in each case.

B8: FM 7B (antibody, V domains shown)
VH: EVQLVQSGAEVKKPGASVKVSCKASGYTFTSYAMHWVRQAPGQRLEWMGWINTGNGNTKYSQKFQGRVTITRDTSASTAYMELSSLRSEDTAVYYCARDPTYCSSTSCYPFSWFDPWGQGTLVTVSS
VL: NFMLTQPPSVSVAPGQTARITCGGNNIGSKSVHWYQQKPGQAPVLVVYDDSDRPSGIPERFSGSNSGNTATLTISRVEAGDEADYYCQVWDSTGDHSWVFGGGTKLTVL
notes: as for B1
Regarding B8, the OD450 in assay [4] stood at 1.27 OD450. Also, in assay [3], the binding result is “binds”.

B9: FD 7C (antibody, V domains shown)
VH: QLQLQESGPGLVKPSETLSLTCTVSGGSISSYYWSWIRQPPGKGLEWIGYIYYSGSTNYNPSLKSRVTISVDTSKNQFSLKLSSVTAADTAVYYCARDYRFGELFGRFAWFDPWGQGTLVTVSS
VL: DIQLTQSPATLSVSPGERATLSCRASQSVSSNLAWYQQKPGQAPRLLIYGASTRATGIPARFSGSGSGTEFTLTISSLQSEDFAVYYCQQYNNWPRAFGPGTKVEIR
notes: as for B1
Turning to B9, the binding result in assay [2] is “binds”; in assay [3], “no binding”.

B10: FI 4A (antibody, V domains shown)
VH: EVQLVESGGGLVKPGGSLRLSCAASGFTFSRFSMNWVRQAPGKGLEWVSSISSSGSYIYFADSVKGRFTISRDNAKNSLYLQMNSLRAEDTAIYYCATYLFGDSHTYWGQGTLVTVSS
VL: QSVLTQPHSVSESPGKTVTISCTGSSGSIASNYVQWYQQRPGSAPTTVIYEDNQRPSGVPDRFSGSIDSSSNSASLTISGLKTEDEADYYCQSYDSSNLHWVFGGGTKLTVL
notes: as for B1
Consider B10, for which the OD450 in assay [4] is 1.12 OD450. Also, in assay [3], the binding result is listed as “binds”.

B11: EZ 7A (antibody, V domains shown)
VH: EVQLVESGAEVKKPGESLKISCKGSGYSFTSYWIGWVRQMPGKGLEWMGIIYPGDSDTRYSPSFQGQVTISADKSISTAYLQWSSLKASDTAMYYCARGWVYRGFPYYGMDVWGQGTMVTVSS
VL: QSALTQPRSVSGSPGQSVTISCTGTSSDVGGYNYVSWYQQHPGKAPKLMIYDVSKRPSGVPDRFSGSKSGNTASLTISGLQAEDEADYYCCSYAGSYTLVFGGGTKLTVL
notes: as for B1
With B11, the OD450 in assay [4] is 1.12 OD450. Besides, the binding result in assay [3] is “binds”.

B12: FD 11C (antibody, V domains shown)
VH: EVQLLESGPGLVKPSETLSLTCTVSGGSISSSSYYWGWIRQPPGKGLEWIGSIYYSGSTYYNPSLKSRVTISVDTSKNQFSLKLSSVTAADTAVYYCAREYYYGSETKKYYYYYGMDVWGQGTTVTVSS
VL: not shown
notes: as for B1
On to B12, for which the binding result in assay [2] and in assay [3] was “no binding” throughout.

B13: FI 1C (antibody, V domains shown)
VH: EVQLVESGGGLVKPGGSLRLSCAASGFTFSDYYMSWIRQAPGKGLEWVSYISSSGSTIYYADSVKGRFTISRDNAKNSLYLQMNSLRAEDTAVYYCARRSNRFLIAFDIWGQGTMVTVSS
VL: QSALTQPASVSGSPGQTITISCTGTSSDVGGYNYVSWYQQHPGKAPKLMIYEVSNRPSGVSNRFSGSKSGNTASLTISGLQAEDEADYYCSSYTSSSTLVVFGGGTKLTVP
notes: as for B1
Take B13: the OD450 in assay [4] was 1.22 OD450. Besides, in assay [3], the binding result is reported as “binds”.

B14: FJ 10B (antibody, V domains shown)
VH: QVQLVQSGAEVKKPGESLRISCKGSGYSFTSYWISWVRQMPGKGLEWMGRIDPSDSYTNYSPSFQGHVTISADKSISTAYLQWSSLKASDTAMYYCARLDPRYGPDYYGMDVWGQGTTVTVSS
VL: AIRMTQSPSSLSASVGDRVTITCRASQSISSYLNWYQQKPGKAPKLLIHAASSLQSGVPSRFSGSGSGTDFTLTMSSLQPEDFATYYCQQSYSTPLTFGGGTKVEIR
notes: as for B1
On to B14, for which the OD450 in assay [4] amounted to 1.22 OD450. Besides, in assay [3], the binding result is “binds”.

B15: FD 5D (antibody, V domains shown)
VH: EVQLVESGGGLVQPGGSLRLSCAASGFTFSSYSMNWVRQAPGKGLEWVSYISSSSSTIYYADPVKGRFTISRDNAKNSLYLQMNSLRAEDTAVYYCASPGGITAAGTSVLFGYYGMDVWGQGTMVTVSS
VL: not shown
notes: as for B1
Turning to B15, the OD450 in assay [4] was 1.19 OD450. For the same molecule, the binding result in assay [3] is recorded as “binds”.

B16: FD 11A (antibody, V domains shown)
VH: EVQLVESGGGVVQPGRSLRLSCAASGFTFSSYGMHWVRQAPGKGLEWVAVIWYDGSNKYYADSVKGRFTISRDNSKNTLYLQMNSLRAEDTAVYYCAKGPDILTGYYNYYYYGMDVWGQGTMVTVSS
VL: QSVLTQPPSVSGAPGQRVTISCTGSSSNIGAGYDVHWYQQLPGTAPKLLIYGNSNRPSGVPDRFSGSKSGTSASLAITGLQAEDEADYYCQSYDSSLSGFYVVFGGGTKLTVL
notes: as for B1
For B16, the OD450 in assay [4] is 1.17 OD450. The binding result in assay [3] was “binds”.

B17: EY 6A (antibody, V domains shown)
VH: EVQLVESGGGVVQPGRSLRLSCAASAFTFSSYDMHWVRQAPGKGLEWVAVISYDGSNKYYADSVKGRFTISRDNSKNTLYLQMNSLRAEDTAVYYCAKDGGKLWVYYFDYWGQGTLVTVSS
VL: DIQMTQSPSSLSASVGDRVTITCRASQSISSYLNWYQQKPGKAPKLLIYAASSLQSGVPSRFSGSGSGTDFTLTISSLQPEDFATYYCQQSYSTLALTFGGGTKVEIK
notes: as for B1
As for B17, the OD450 in assay [4] came to 1.18 OD450. For the same molecule, the binding result in assay [3] is reported as “binds”.

B18: FN 12A (antibody, V domains shown)
VH: QVQLVQSGAEVKKPGSSVKVSCKASGGTFSSYAISWVRQAPGQGLEWMGRIIPILGIANYAQKFQGRVTITADKSTSTAYMELSSLRSEDTAVYYCARSGCSSTSCPSNLYYYYYGMDVWGQGTTVTVSS
VL: QSVLTQPPSVSAAPGQKVTISCSGSSSNIGNNYVSWYQQLPGTAPKLLIYDNNKRPSGIPDRFSGSKSGTSATLGITGLQTGDEADYYCGTWDSSLSALVFGGGTKLTVL
notes: as for B1
As for B18, the OD450 in assay [4] worked out at 1.33 OD450. In addition, the binding result in assay [2] was “no binding”; in assay [3], “binds”.

B19: FI 3A (antibody, V domains shown)
VH: EVQLLESGGGLIQPGGSLRLSCAASGFTVSSNYMSWVRQAPGKGLEWVSVIYSGGSTYYADSVKGRFTISRDNSKNTLYLQMNSLRAEDTAVYYCARDHVRPGMNIWGQGTMVTVSS
VL: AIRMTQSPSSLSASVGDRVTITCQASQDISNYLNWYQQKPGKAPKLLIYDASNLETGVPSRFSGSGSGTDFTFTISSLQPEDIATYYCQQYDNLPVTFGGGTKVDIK
notes: as for B1
With B19, the OD450 in assay [4] was found to be 1.12 OD450. For the same molecule, in assay [3], the binding result was “binds”.

B20: FD 5E (antibody, V domains shown)
VH: EVQLVESGGVVVQPGGSLRLSCAASGFTFDDYAMHWVRQAPGKGLEWVSLISWDGGSTYYADSVKGRFTISRDNSKNSLYLQMNSLRAEDTALYYCAKDSVRFRYYYGMDVWGQGTTVTVSS
VL: B2 VL with I96L, Q100P, R103K, L104V, E105D
notes: as for B1
Take B20: the binding result in assay [2] and in assay [3] was “no binding” each time.

B21: EW 9B (antibody, V domains shown)
VH: EVQLVQSGAEVKKPGASVKVSCKASGYTFTSYYMHWVRQAPGQGLEWMGIINPSGGSTSYAQKFQGRVTMTRDTSTSTVYMELSSLRSEDTAVYYCAREDGVVPAANLMISLEDYYYYGMDVWGQGTTVTVSS
VL: B2 VL with I96L, Q100G, R103K, L104V, E105D
notes: as for B1
Consider B21, for which the binding result in assay [2] and in assay [3] was “no binding” throughout.
